Laboratory results from patent US20210388087A1.
Substitutions are numbered along the chain they refer to. In names and notes the source's numbering stands. One block for each binder: values may come before it.

Target: Human CD137 ECD (human)
Assay: single mutant vs template dBBDu183H

Human CD137 ECD (human), sequence (chain, as listed by the source limits assumed): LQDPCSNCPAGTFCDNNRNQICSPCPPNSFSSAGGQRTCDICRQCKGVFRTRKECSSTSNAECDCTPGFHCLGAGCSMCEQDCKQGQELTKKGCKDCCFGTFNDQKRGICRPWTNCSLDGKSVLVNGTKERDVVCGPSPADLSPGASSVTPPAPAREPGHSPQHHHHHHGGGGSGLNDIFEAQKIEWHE

- fold change of affinity: 0 fold
B1: H183/L072 VH D52aP (antibody, name in Kabat numbering, V domains shown)
VH: QVQLVESGGGLVQPGRSLRLSCAASGFTFSNAWMHWVRQAPGKGLEWVAQIKPKGNAYAAYYAPSVKGRFTISRDDSKNSIYLQMNSLKTEDTAVYYCHYVHYASASTVLPAFGVDAWGQGTTVTVSS
VL: DIVMTQSPLSLPVTPGEPASISCQASQELVHMNRNTYLHWYQQKPGQAPRLLIYKVSNRFPGVPDRFSGSGSGTDFTLKISRVEAEDVGVYYCAQGTSVPFTFGQGTKLEIK

- fold change of affinity: 0 fold
B2: H183/L072 VH Y55P (antibody, name in Kabat numbering, V domains shown)
VH: B1 VH with P53D, Y58P
VL: B1 VL

- fold change of affinity: 0 fold
B3: H183/L072 VH K52G (antibody, name in Kabat numbering, V domains shown)
VH: B1 VH with K52G, P53D
VL: B1 VL

- fold change of affinity: 0 fold
B4: H183/L072 VH M34Q (antibody, name in Kabat numbering, V domains shown)
VH: B1 VH with M34Q, P53D
VL: B1 VL

- fold change of affinity: 0 fold
B5: H183/L072 VH F29G (antibody, name in Kabat numbering, V domains shown)
VH: B1 VH with F29G, P53D
VL: B1 VL

- fold change of affinity: 0 fold
B6: H183/L072 VH W33Q (antibody, name in Kabat numbering, V domains shown)
VH: B1 VH with W33Q, P53D
VL: B1 VL

- fold change of affinity: 0 fold
B7: H183/L072 VH D52aV (antibody, name in Kabat numbering, V domains shown)
VH: B1 VH with P53V
VL: B1 VL

- fold change of affinity: 0 fold
B8: H183/L072 VH W33G (antibody, name in Kabat numbering, V domains shown)
VH: B1 VH with W33G, P53D
VL: B1 VL

- fold change of affinity: 0 fold
B9: H183/L072 VH D52aN (antibody, name in Kabat numbering, V domains shown)
VH: B1 VH with P53N
VL: B1 VL

- fold change of affinity: 0 fold
B10: H183/L072 VH D52aQ (antibody, name in Kabat numbering, V domains shown)
VH: B1 VH with P53Q
VL: B1 VL

- fold change of affinity: 0 fold
B11: H183/L072 VH Y55V (antibody, name in Kabat numbering, V domains shown)
VH: B1 VH with P53D, Y58V
VL: B1 VL

- fold change of affinity: 0 fold
B12: H183/L072 VH W33S (antibody, name in Kabat numbering, V domains shown)
VH: B1 VH with W33S, P53D
VL: B1 VL

- fold change of affinity: 0 fold
B13: H183/L072 VH T28S (antibody, name in Kabat numbering, V domains shown)
VH: B1 VH with T28S, P53D
VL: B1 VL

- fold change of affinity: 0 fold
B14: H183/L072 VH N53V (antibody, name in Kabat numbering, V domains shown)
VH: B1 VH with P53D, N56V
VL: B1 VL

- fold change of affinity: 0 fold
B15: H183/L072 VH K52V (antibody, name in Kabat numbering, V domains shown)
VH: B1 VH with K52V, P53D
VL: B1 VL

- fold change of affinity: 0 fold
B16: H183/L072 VH Q50G (antibody, name in Kabat numbering, V domains shown)
VH: B1 VH with Q50G, P53D
VL: B1 VL

- fold change of affinity: 0 fold
B17: H183/L072 VH M34N (antibody, name in Kabat numbering, V domains shown)
VH: B1 VH with M34N, P53D
VL: B1 VL

- fold change of affinity: 0 fold
B18: H183/L072 VH T28N (antibody, name in Kabat numbering, V domains shown)
VH: B1 VH with T28N, P53D
VL: B1 VL

- fold change of affinity: 0 fold
B19: H183/L072 VH M34G (antibody, name in Kabat numbering, V domains shown)
VH: B1 VH with M34G, P53D
VL: B1 VL

- fold change of affinity: 0 fold
B20: H183/L072 VH W33N (antibody, name in Kabat numbering, V domains shown)
VH: B1 VH with W33N, P53D
VL: B1 VL

- fold change of affinity: 0 fold
B21: H183/L072 VH F29S (antibody, name in Kabat numbering, V domains shown)
VH: B1 VH with F29S, P53D
VL: B1 VL

- fold change of affinity: 0 fold
B22: H183/L072 VH N53G (antibody, name in Kabat numbering, V domains shown)
VH: B1 VH with P53D, N56G
VL: B1 VL

- fold change of affinity: 0 fold
B23: H183/L072 VH G26V (antibody, name in Kabat numbering, V domains shown)
VH: B1 VH with G26V, P53D
VL: B1 VL

- fold change of affinity: 0 fold
B24: H183/L072 VH N53Q (antibody, name in Kabat numbering, V domains shown)
VH: B1 VH with P53D, N56Q
VL: B1 VL

- fold change of affinity: 0 fold
B25: H183/L072 VH F29Q (antibody, name in Kabat numbering, V domains shown)
VH: B1 VH with F29Q, P53D
VL: B1 VL

- fold change of affinity: 0 fold
B26: H183/L072 VH F29N (antibody, name in Kabat numbering, V domains shown)
VH: B1 VH with F29N, P53D
VL: B1 VL

- fold change of affinity: 0 fold
B27: H183/L072 VH W33V (antibody, name in Kabat numbering, V domains shown)
VH: B1 VH with W33V, P53D
VL: B1 VL

- fold change of affinity: 0 fold
B28: H183/L072 VH D52aG (antibody, name in Kabat numbering, V domains shown)
VH: B1 VH with P53G
VL: B1 VL

- fold change of affinity: 0 fold
B29: H183/L072 VH N53P (antibody, name in Kabat numbering, V domains shown)
VH: B1 VH with P53D, N56P
VL: B1 VL

- fold change of affinity: 0 fold
B30: H183/L072 VH H35Q (antibody, name in Kabat numbering, V domains shown)
VH: B1 VH with H35Q, P53D
VL: B1 VL

- fold change of affinity: 0 fold
B31: H183/L072 VH A54P (antibody, name in Kabat numbering, V domains shown)
VH: B1 VH with P53D, A57P
VL: B1 VL

- fold change of affinity: 0 fold
B32: H183/L072 VH I51Q (antibody, name in Kabat numbering, V domains shown)
VH: B1 VH with I51Q, P53D
VL: B1 VL

- fold change of affinity: 0 fold
B33: H183/L072 VH H35G (antibody, name in Kabat numbering, V domains shown)
VH: B1 VH with H35G, P53D
VL: B1 VL
